From PMC2843633 come the findings set out here.

In this experiment the target is human fibrinogen receptor (GPIIb/IIIa), purified (human) (UniProt P05106). In words: ELISA; GPIIb/IIIa coated at 40 nM on Nunc Maxisorb plates; 5′Nuc/SUMO 250 – 1.95 nM in solution, 0.1% Tween 20; detected with polyclonal anti-5′Nuc IgG or anti-SUMO IgG; apparent KD from four experiments.

B1: 5′Nuc/SUMO fusion protein (Glossina morsitans morsitans 5′nucleotidase-related protein, recombinant, refolded) (enzyme)
chain: DDLYPLTIMHTNDFHARFEETNVKGNPCKSGEKCIGGLARVLHTIKKIIKEQEKKNIESLYINAGDNFQGTIWYNIGRWNVTSELMNIQPPDVMVLGNHEFDHGIDGLLPFLNNMDKTEIVVANMDARDEPQVAKKIKPFTIIKKKYRNIGVIGVVVEEVPDLANTGKLKFRNESEAILEAARNLKKEDPSVNIIIVVSHVGFDVDKIIAERTGSEVDIIVGGHSHTVLYTGTPPGPEKPEDNYPYVYNHPSGNKVLVVQAVCHAKYVGNLTVFFDKKGKVVTYEGAPIYMDTKVEQDKDVLEAMKPWRKLIDEKTKLVVGRTNVDLPRDICRSEECALGNLYTDSMIYAFGGKENCKSGSTWTTAPIAFVHAGAMRSSLHQGDILYSDALLLSPFTNMVVAYDLPGAQLKAALEFSAAPKNEDEKRRFLQMSGLKVTYNMSRAANNRIVDLKVRTNVCPYDQYENLDEKKTYRVVSPSFLQGGGDGFKMLRDYAKNIQNQKIDLDALVDYLKKFSPLAPKAEGRITIIH
For B1, the Kd came to 92 nM.
